Measurements reported in article doi:10.1101/2025.05.06.651509 (bioRxiv, 2025).

B1: recombinant TSC22D4 (natural protein, human, UniProt Q9Y3Q8 1-395, looked up)
chain: MSGGKKKSSFQITSVTTDYEGPGSPGASDPPTPQPPTGPPPRLPNGEPSPDPGGKGTPRNGSPPPGAPSSRFRVVKLPHGLGEPYRRGRWTCVDVYERDLEPHSFGGLLEGIRGASGGAGGRSLDSRLELASLGLGAPTPPSGLSQGPTSWLRPPPTSPGPQARSFTGGLGQLVVPSKAKAEKPPLSASSPQQRPPEPETGESAGTSRAATPLPSLRVEAEAGGSGARTPPLSRRKAVDMRLRMELGAPEEMGQVPPLDSRPSSPALYFTHDASLVHKSPDPFGAVAAQKFSLAHSMLAISGHLDSDDDSGSGSLVGIDNKIEQAMDLVKSHLMFAVREEVEVLKEQIRELAERNAALEQENGLLRALASPEQLAQLPSSGVPRLGPPAPNGPSV
modifications: RED-tris-NTA dye on the His tag (labelled copy only)
B2: TSC22D4 I322W (natural protein, human, UniProt Q9Y3Q8 1-395, looked up)
chain: MSGGKKKSSFQITSVTTDYEGPGSPGASDPPTPQPPTGPPPRLPNGEPSPDPGGKGTPRNGSPPPGAPSSRFRVVKLPHGLGEPYRRGRWTCVDVYERDLEPHSFGGLLEGIRGASGGAGGRSLDSRLELASLGLGAPTPPSGLSQGPTSWLRPPPTSPGPQARSFTGGLGQLVVPSKAKAEKPPLSASSPQQRPPEPETGESAGTSRAATPLPSLRVEAEAGGSGARTPPLSRRKAVDMRLRMELGAPEEMGQVPPLDSRPSSPALYFTHDASLVHKSPDPFGAVAAQKFSLAHSMLAISGHLDSDDDSGSGSLVGIDNKWEQAMDLVKSHLMFAVREEVEVLKEQIRELAERNAALEQENGLLRALASPEQLAQLPSSGVPRLGPPAPNGPSV

Molecular target: the molecule itself
Test: MST

Protein | binding result
B1 | binds
B2 | binds
